B1: Hammerhead Ribozyme (parent)
chain: ACCGGAUGUGCUUUCCGGUCUGAUGAGUCCGUGAGGACGAAACAG

Variants of: B1
Test: self-cleavage, relative activity (ratio to wild type); higher = more cleavage; co-transcriptional

Compared with ACGGGAUGUGCUUUCCGGUCUGAUGAGUCCGUGAGUACGAAACAG, ACGGGAUGUGCUUUCCGGUCUGAUGAGUCCGUGAGGACAAAACAG is higher in self-cleavage: 0.278 for the first, 0.31 for the second.

Compared with ACGGGAUGUGCUUUCCGGUCUGAUGAGUCCGUGAGGACCAAACAG, ACGGGAUGUGCUUUCCGGUCUGAUGAGUCCGUGAGGACUAAACAG is lower in self-cleavage: 0.288 for the first, 0.284 for the second.

Compared with ACGGGAUGUGCUUUCCGGUCUGAUGAGUCCGUGAGGACGAAACAA, ACGGGAUGUGCUUUCCGGUCUGAUGAGUCCGUGAGGACGAAACAC is lower in self-cleavage: 0.371 for the first, 0.35 for the second.

Compared with ACGGGAUGUGCUUUCCGGUCUGAUGAGUCCGUGAGGACGAAACAU, ACGGGAAGUGCUUUCCGGUCUGAUGAGUCCGUGAGGACGAAACAG is higher in self-cleavage: 0.374 for the first, 0.471 for the second.

First: ACGGGACGUGCUUUCCGGUCUGAUGAGUCCGUGAGGACGAAACAG
Second: ACGGGAGGUGCUUUCCGGUCUGAUGAGUCCGUGAGGACGAAACAG
The self-cleavage of the first is lower: 0.462 for the first, 0.625 for the second.

Compared with ACGGGAUGAGCUUUCCGGUCUGAUGAGUCCGUGAGGACGAAACAG, ACGGGAUGCGCUUUCCGGUCUGAUGAGUCCGUGAGGACGAAACAG is higher in self-cleavage: 0.411 for the first, 0.574 for the second.

First: ACGGGAUGGGCUUUCCGGUCUGAUGAGUCCGUGAGGACGAAACAG
Second: ACGGGAUGUGCAUUCCGGUCUGAUGAGUCCGUGAGGACGAAACAG
The self-cleavage of the first is higher: 0.407 for the first, 0.352 for the second.

Compared with ACGGGAUGUGCCUUCCGGUCUGAUGAGUCCGUGAGGACGAAACAG, ACGGGAUGUGCGUUCCGGUCUGAUGAGUCCGUGAGGACGAAACAG is lower in self-cleavage: 0.394 for the first, 0.356 for the second.

First: ACGGGAUGUGCUAUCCGGUCUGAUGAGUCCGUGAGGACGAAACAG
Second: ACGGGAUGUGCUCUCCGGUCUGAUGAGUCCGUGAGGACGAAACAG
The self-cleavage of the first is higher: 1.02 for the first, 0.655 for the second.

Compared with ACGGGAUGUGCUGUCCGGUCUGAUGAGUCCGUGAGGACGAAACAG, ACGGGAUGUGCUUACCGGUCUGAUGAGUCCGUGAGGACGAAACAG is lower in self-cleavage: 0.628 for the first, 0.347 for the second.

First: ACGGGAUGUGCUUCCCGGUCUGAUGAGUCCGUGAGGACGAAACAG
Second: ACGGGAUGUGCUUGCCGGUCUGAUGAGUCCGUGAGGACGAAACAG
The self-cleavage of the first is higher: 0.56 for the first, 0.557 for the second.

Going from ACGGGAUGUGCUUUCCGGACUGAUGAGUCCGUGAGGACGAAACAG to ACGGGAUGUGCUUUCCGGCCUGAUGAGUCCGUGAGGACGAAACAG, the self-cleavage rises from 0.265 to 0.31.

Going from ACGGGAUGUGCUUUCCGGGCUGAUGAGUCCGUGAGGACGAAACAG to ACGGGAUGUGCUUUCCGGUCAGAUGAGUCCGUGAGGACGAAACAG, the self-cleavage falls from 0.306 to 0.236.

Going from ACGGGAUGUGCUUUCCGGUCCGAUGAGUCCGUGAGGACGAAACAG to ACGGGAUGUGCUUUCCGGUCGGAUGAGUCCGUGAGGACGAAACAG, the self-cleavage falls from 0.413 to 0.298.

Going from ACGGGAUGUGCUUUCCGGUCUGAAGAGUCCGUGAGGACGAAACAG to ACGGGAUGUGCUUUCCGGUCUGACGAGUCCGUGAGGACGAAACAG, the self-cleavage falls from 0.511 to 0.477.

First: ACGGGAUGUGCUUUCCGGUCUGAGGAGUCCGUGAGGACGAAACAG
Second: ACGGGAUGUGCUUUCCGGUCUGAUGAGACCGUGAGGACGAAACAG
The self-cleavage of the first is higher: 0.44 for the first, 0.376 for the second.

Going from ACGGGAUGUGCUUUCCGGUCUGAUGAGCCCGUGAGGACGAAACAG to ACGGGAUGUGCUUUCCGGUCUGAUGAGGCCGUGAGGACGAAACAG, the self-cleavage falls from 0.447 to 0.356.

First: ACGGGAUGUGCUUUCCGGUCUGAUGAGUCCGAGAGGACGAAACAG
Second: ACGGGAUGUGCUUUCCGGUCUGAUGAGUCCGCGAGGACGAAACAG
The self-cleavage of the first is higher: 0.639 for the first, 0.433 for the second.

Going from ACGGGAUGUGCUUUCCGGUCUGAUGAGUCCGGGAGGACGAAACAG to ACUGGAUGUGCUUUCCGGUCUGAUGAGUCCGUGAGGACGAAACAG, the self-cleavage rises from 0.36 to 1.03.

Going from ACUGGCUGUGCUUUCCGGUCUGAUGAGUCCGUGAGGACGAAACAG to ACUGGGUGUGCUUUCCGGUCUGAUGAGUCCGUGAGGACGAAACAG, the self-cleavage rises from 0.437 to 0.747.

Going from ACUGGUUGUGCUUUCCGGUCUGAUGAGUCCGUGAGGACGAAACAG to ACUGGAUGUGCUUUCCGGUCUGCUGAGUCCGUGAGGACGAAACAG, the self-cleavage falls from 0.609 to 0.491.

First: ACUGGAUGUGCUUUCCGGUCUGGUGAGUCCGUGAGGACGAAACAG
Second: ACUGGAUGUGCUUUCCGGUCUGUUGAGUCCGUGAGGACGAAACAG
The self-cleavage of the first is lower: 0.331 for the first, 0.347 for the second.

First: ACUGGAUGUGCUUUCCGGUCUGAUGCGUCCGUGAGGACGAAACAG
Second: ACUGGAUGUGCUUUCCGGUCUGAUGGGUCCGUGAGGACGAAACAG
The self-cleavage of the first is higher: 0.394 for the first, 0.366 for the second.

First: ACUGGAUGUGCUUUCCGGUCUGAUGUGUCCGUGAGGACGAAACAG
Second: ACUGGAUGUGCUUUCCGGUCUGAUGAGUCCGUGCGGACGAAACAG
The self-cleavage of the first is lower: 0.624 for the first, 0.851 for the second.

Compared with ACUGGAUGUGCUUUCCGGUCUGAUGAGUCCGUGGGGACGAAACAG, ACUGGAUGUGCUUUCCGGUCUGAUGAGUCCGUGUGGACGAAACAG is higher in self-cleavage: 0.91 for the first, 0.947 for the second.

First: ACUGGAUGUGCUUUCCGGUCUGAUGAGUCCGUGAGGCCGAAACAG
Second: ACUGGAUGUGCUUUCCGGUCUGAUGAGUCCGUGAGGGCGAAACAG
The self-cleavage of the first is lower: 0.566 for the first, 0.799 for the second.

First: ACUGGAUGUGCUUUCCGGUCUGAUGAGUCCGUGAGGUCGAAACAG
Second: ACUGGAUGUGCUUUCCGGUCUGAUGAGUCCGUGAGGACGCAACAG
The self-cleavage of the first is higher: 0.794 for the first, 0.469 for the second.

Going from ACUGGAUGUGCUUUCCGGUCUGAUGAGUCCGUGAGGACGGAACAG to ACUGGAUGUGCUUUCCGGUCUGAUGAGUCCGUGAGGACGUAACAG, the self-cleavage rises from 0.34 to 0.36.

ACUGGAUGUGCUUUCCGGUCUGAUGAGUCCGUGAGGACGACACAG showed a self-cleavage of 0.404.
